# Results from patent US20240336701A1 (Novartis, published 2024).
# Changes are numbered by the printed parent chain.
# B1: ANTI-HUMAN ENTPD2 MAB21 (antibody, human IgG1, kappa, V domains shown)
# VH: EVQLQQSGPELVKPGASVKISCKTSGYTFTEYTMHWVKQSHGKSLEWIGGINPNNGITTYNQKFKGKATLTVDKSSSTAYMDLRSLTSEGSAVYYCARRGFPIYYYGTSLYYFDYWGQGTTLTVSS
# VL: QIVLTQSPAIMSASLGEEITLTCSASSSVSYMHWYQQRSGTSPKLLIYTTSNLASGVPSRFSGSGSGTFYSLTISSVEAEDAADYYCHQWSSYPWTFGGGTKLEIKR
# B2: ANTI-HUMAN ENTPD2 MAB17 (antibody, human IgG1, kappa, V domains shown)
# VH: EVQLQQFGAELVKPGASVKISCKASGYTFTDYNMDWVKQSHGKSLEWIGDINPKYDISTYNQQFKGKATLTVDKSSSTAYMELRSLTSEDTAVYYCARRGFFLYYGINYYYFDVWGAGTTVTVSS
# VL: B1 VL with M32I, R38K, K44T, T49S
# B3: ANTI-HUMAN ENTPD2 MAB16 (antibody, human IgG1, kappa, V domains shown)
# VH: DIQLQESGPGLVKPSQSLSLTCSVTGYSITSGYYWNWIRQFPGNKLEWMGYISYDGDNNYNPSLKNRISITRDTSKNQFFLKLSSVTTEDTATYYCAGGYYRYGLSYYYVMDYWGQGTSVTVSS
# VL: DTVLTQSPASLAVSLGQRATISCKASQSVDYDGNSYMNWYQQKPGQPPKLLIYAASNLESGIPARFSGSGSGTDFTLNIHPVEEEDAATYYCQQSNEDPPTFGGGTKLEIKR
# B4: ANTI-HUMAN ENTPD2 MAB1 (antibody, human IgG1, kappa, V domains shown)
# VH: EVQLVQSGAEVKKPGESLKISCKASGYTFTDYNMDWVRQMPGKGLEWMGDINPKYDISTYNQQFKGQVTISADKSIRTAYLQWSSLKASDTAMYYCARRGFFLYYGINYYYFDVWGQGTLVTVSS
# VL: DIQLTQSPSSLSASVGDRVTITCSASSSVSYIHWFQQKPGKAPKLLIYSTSNLASGVPSRFSGSGSGTFFTLTISSLQPEDFATYFCHQWSSYPWTFGQGTKVEIKR
# B5: ANTI-mouse ENTPD2 MAB13 (antibody, mouse IgG2a, kappa, V domains shown)
# VH: QVQLVQSGAELKQPGQSVKISCKASGYTFTHYGMNWVKQAPGQGLKWMGWINTDTGNPTYADDFKGRFVFSLDTSVSTAYLQISNLKNEDTATYYCVRYGTLYSGYGFFFDSWGQGTLVTVSS
# VL: DIMMTQSPSSLSVSAGEKATITCKSSQSLFNSNTNKNYLNWYLQKPGQSPKLLFYYASTRHTGVPDRFIGSGSGTDFTLTITSVQDEDLADYYCQQWYSYPWTFGPGTKLEIKR
# notes: also called Anti-ENTPD2 mAb13
# B6: ANTI-mouse ENTPD2 MAB14 (antibody, mouse IgG2a, kappa, V domains shown)
# VH: B5 VH with T30W
# VL: B5 VL
# B7: ANTI-mouse ENTPD2 MAB15 (antibody, mouse IgG2a, kappa, V domains shown)
# VH: B5 VH with T30H
# VL: B5 VL
# Legend:
# [1] = target: recombinant human ENTPD2 extracellular domain (residues 29-462) with C-terminal Avi-His6 tag (human, UniProt Q9Y5L3 29-462); assay: cell-based or functional assay
# [2] = target: T1, human ENTPD2, full length, on cells (human, UniProt Q9Y5L3 1-495); assay: cell-based or functional assay
# T1 sequence: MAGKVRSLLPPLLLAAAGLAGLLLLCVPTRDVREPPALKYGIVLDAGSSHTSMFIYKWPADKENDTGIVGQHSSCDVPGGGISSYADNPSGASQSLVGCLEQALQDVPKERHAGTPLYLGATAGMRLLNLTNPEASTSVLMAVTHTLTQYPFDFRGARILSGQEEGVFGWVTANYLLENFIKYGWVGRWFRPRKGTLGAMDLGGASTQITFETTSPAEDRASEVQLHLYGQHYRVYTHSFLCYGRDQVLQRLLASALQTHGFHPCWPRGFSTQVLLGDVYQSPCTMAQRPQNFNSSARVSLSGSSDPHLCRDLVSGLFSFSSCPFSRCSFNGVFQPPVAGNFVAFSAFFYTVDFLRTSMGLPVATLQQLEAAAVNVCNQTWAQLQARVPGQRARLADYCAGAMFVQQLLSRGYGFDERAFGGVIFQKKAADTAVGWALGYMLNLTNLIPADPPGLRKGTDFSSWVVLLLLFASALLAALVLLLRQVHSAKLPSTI
# [3] = target: T2, cynomolgus ENTPD2, full length, on cells (cynomolgus macaque, UniProt Q9Y5L3 1-495 (human entry)); assay: cell-based or functional assay
# T2 chain: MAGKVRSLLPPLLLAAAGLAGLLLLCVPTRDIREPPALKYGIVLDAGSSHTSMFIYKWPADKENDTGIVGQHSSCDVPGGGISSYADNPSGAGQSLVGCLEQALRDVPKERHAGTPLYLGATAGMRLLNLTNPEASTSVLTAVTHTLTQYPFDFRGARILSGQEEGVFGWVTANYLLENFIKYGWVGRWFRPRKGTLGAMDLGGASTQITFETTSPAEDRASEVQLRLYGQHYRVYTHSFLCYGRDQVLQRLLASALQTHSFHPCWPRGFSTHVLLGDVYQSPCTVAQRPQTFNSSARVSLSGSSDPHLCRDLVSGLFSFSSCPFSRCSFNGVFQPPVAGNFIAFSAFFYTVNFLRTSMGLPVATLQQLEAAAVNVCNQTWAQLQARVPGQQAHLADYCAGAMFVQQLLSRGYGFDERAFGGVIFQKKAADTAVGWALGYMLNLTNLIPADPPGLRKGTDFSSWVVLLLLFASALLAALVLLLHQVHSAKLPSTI
# [4] = target: T2, cynomolgus ENTPD2, full length, on cells; assay: FACS
# [5] = target: T3, mouse ENTPD2, full length, on cells (mouse, UniProt O55026 1-495); assay: cell-based or functional assay
# T3 sequence: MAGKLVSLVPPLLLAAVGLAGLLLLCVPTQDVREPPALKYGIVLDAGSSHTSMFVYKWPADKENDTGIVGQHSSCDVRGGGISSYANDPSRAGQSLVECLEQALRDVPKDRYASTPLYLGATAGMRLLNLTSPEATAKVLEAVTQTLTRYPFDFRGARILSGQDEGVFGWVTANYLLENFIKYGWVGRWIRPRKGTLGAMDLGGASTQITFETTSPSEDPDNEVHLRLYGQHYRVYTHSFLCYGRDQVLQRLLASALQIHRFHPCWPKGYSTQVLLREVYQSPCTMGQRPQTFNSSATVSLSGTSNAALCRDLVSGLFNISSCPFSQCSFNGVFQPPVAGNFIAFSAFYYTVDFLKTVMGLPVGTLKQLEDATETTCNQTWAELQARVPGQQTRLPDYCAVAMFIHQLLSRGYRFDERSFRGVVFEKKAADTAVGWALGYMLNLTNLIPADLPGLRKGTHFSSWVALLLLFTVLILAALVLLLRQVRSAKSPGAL
# [6] = target: T1, human ENTPD2, full length, on cells; assay: flow cytometry on human ENTPD2 engineered B16LM3 clone B5 cells (human ENTPD2 expressed, endogenous mouse ENTPD2 knocked out); anti-mouse IgG-AF647 secondary. The text names the antibody as mAb13.
Binder,ENTPD2 Biochemical Assay at 1 uM ATP IC50 [1],Human ENTPD2 NIH/3T3 Assay % inhibition [2],Human ENTPD2 NIH/3T3 Assay IC50 [2],RKO Assay % inhibition [2],RKO Assay IC50 [2],Cyno ENTPD2 NIH/3T3 Assay % inhibition [3],Cyno ENTPD2 NIH/3T3 Assay IC50 [3],binding result [4],"ENTPD2 Functional Assay IC50 (nM), mouse ENTPD2 NIH/3T3 cells [5]",binding result [6]
B1,0.87 nM,–,–,–,–,–,–,–,–,–
B2,0.27 nM,98%,0.6 nM,96%,0.5 nM,91%,1 nM,–,–,–
B3,77.3 nM,30%,> 133 nM,–,–,5%,> 133 nM,–,–,–
B4,0.52 nM,92%,1.1 nM,97%,0.8 nM,91%,4.1 nM,–,–,–
B5,–,–,–,–,–,–,–,no binding,2.8 nM,no binding
B6,–,–,–,–,–,–,–,–,4.6 nM,–
B7,–,–,–,–,–,–,–,–,5.9 nM,–
